Like-named read-outs stand apart in the source and are kept apart here. Positions of bridges follow the written chain, without caps; N, C: chain ends. Non-standard residues stand in square brackets, D forms with d. Groups on a side chain read outwards from the residue. Primed or numbered codes have the meaning given here. No end group written: not given here. *: point of attachment. PEG 40 kDa″ = 40 kDa polyethylene glycol; Stearoyl = CCCCCCCCCCCCCCCCCC(=O)*; Palmitoyl = CCCCCCCCCCCCCCCC(=O)*; Myristoyl = CCCCCCCCCCCCCC(=O)*; Dab = NCC[C@H](N)C(=O)O; Aib = CC(C)(N)C(=O)O
Assays:
Assay in all cases: cell-based or functional assay
glucagon receptor [1] = molecular target: T1, glucagon receptor (UniProt P47871 26-477, limits assumed)
T1 sequence (P47871 26-477 limits assumed): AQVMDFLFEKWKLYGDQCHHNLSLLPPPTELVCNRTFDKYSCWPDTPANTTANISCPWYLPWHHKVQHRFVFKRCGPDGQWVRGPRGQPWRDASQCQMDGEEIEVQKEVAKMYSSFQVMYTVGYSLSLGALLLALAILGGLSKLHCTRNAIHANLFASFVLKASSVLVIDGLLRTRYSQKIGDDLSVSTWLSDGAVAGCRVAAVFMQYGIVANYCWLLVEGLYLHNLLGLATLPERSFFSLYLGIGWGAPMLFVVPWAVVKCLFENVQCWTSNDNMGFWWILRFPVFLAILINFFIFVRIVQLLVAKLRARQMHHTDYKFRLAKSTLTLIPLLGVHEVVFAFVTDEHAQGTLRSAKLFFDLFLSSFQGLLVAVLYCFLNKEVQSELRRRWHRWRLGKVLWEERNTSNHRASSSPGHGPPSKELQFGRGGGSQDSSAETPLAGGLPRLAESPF

GLP-1 receptor [2] = molecular target: T2, GLP-1 receptor (UniProt P43220 24-463, limits assumed)
GLP-1 receptor [3] = molecular target: T2, GLP-1 receptor; remark: listed apart in the source
GLP-1 receptor [4] = molecular target: T2, GLP-1 receptor; remark: listed apart in the source
glucagon receptor [5] = molecular target: T1, glucagon receptor; remark: listed apart in the source
GLP-1 receptor [6] = molecular target: T2, GLP-1 receptor; remark: listed apart in the source
glucagon receptor [7] = molecular target: T1, glucagon receptor; remark: listed apart in the source
glucagon receptor [8] = molecular target: T1, glucagon receptor; remark: listed apart in the source
GLP-1 receptor [9] = molecular target: T2, GLP-1 receptor; remark: listed apart in the source
glucagon receptor [10] = molecular target: T1, glucagon receptor; remark: listed apart in the source
GLP-1 receptor [11] = molecular target: T2, GLP-1 receptor; remark: listed apart in the source
GLP-1 receptor [12] = molecular target: T2, GLP-1 receptor; remark: listed apart in the source
glucagon receptor [13] = molecular target: T1, glucagon receptor; remark: listed apart in the source
glucagon receptor [14] = molecular target: T1, glucagon receptor; remark: listed apart in the source

H[Aib]QGTFTSDYSKYLDEQAAKEFIC([maleimide-PEG 40 kDa])WLMNT [Peptide X-PEG]
% activity of native glucagon (glucagon receptor [1]): 1.9%
EC50 (cAMP, CRE-luciferase) (glucagon receptor [1]): 2.9 nM

HSQGTFTSDK(Stearoyl)SKYLDERRAKDFVQWLMNT-NH2 [E16 K20-glucagon-NH2 with K10-C18]
EC50 (GLP-1 receptor [2]): 0.032 nM
EC50 (GLP-1 receptor [3]): 0.03 nM

HSQGTFTSDK([Trp-Palmitoyl])SKYLDERRAKDFVQWLMNT-NH2 [E16 K20-glucagon-NH2 with K10-W-C16]
EC50 (GLP-1 receptor [3]): 0.05 nM

B1: Peptide 77** (SEQ ID NO: 616) (peptide)
peptide: H[Aib]QGTFTSDK(Myristoyl)SKYLD[Aib]RRAQDFVCWLMNT-NH2
modifications: N-terminus assumed
SMILES: CCCCCCCCCCCCCC(=O)NCCCC[C@H](NC(=O)[C@H](CC(=O)O)NC(=O)[C@H](CO)NC(=O)[C@@H](NC(=O)[C@H](Cc1ccccc1)NC(=O)[C@@H](NC(=O)CNC(=O)[C@H](CCC(N)=O)NC(=O)C(C)(C)NC(=O)[C@@H](N)Cc1c[nH]cn1)[C@@H](C)O)[C@@H](C)O)C(=O)N[C@@H](CO)C(=O)N[C@@H](CCCCN)C(=O)N[C@@H](Cc1ccc(O)cc1)C(=O)N[C@@H](CC(C)C)C(=O)N[C@@H](CC(=O)O)C(=O)NC(C)(C)C(=O)N[C@@H](CCCNC(=N)N)C(=O)N[C@@H](CCCNC(=N)N)C(=O)N[C@@H](C)C(=O)N[C@@H](CCC(N)=O)C(=O)N[C@@H](CC(=O)O)C(=O)N[C@@H](Cc1ccccc1)C(=O)N[C@H](C(=O)N[C@@H](CS)C(=O)N[C@@H](Cc1c[nH]c2ccccc12)C(=O)N[C@@H](CC(C)C)C(=O)N[C@@H](CCSC)C(=O)N[C@@H](CC(N)=O)C(=O)N[C@H](C(N)=O)[C@@H](C)O)C(C)C
EC50 (GLP-1 receptor [4]): 0.063 nM
EC50 (glucagon receptor [5]): 0.144 nM

H[Aib]QGTFTSDYSKYLDEQAAKEFICWLMNT (lactam 16-20) [Peptide Y]
% activity of native glucagon (glucagon receptor [1]): 99.5%

HSQGTFTSDYSKYLDEQAAKEFIAWLVKG-NH2 [E16 GLP(17-29)-NH2]
cAMP induction EC50 (GLP-1 receptor [6]): 0.01 nM
cAMP induction EC50 (glucagon receptor [7]): 0.46 nM

H[Aib]QGTFTSDK(Stearoyl)SKYLDEQAAKEFIC(PEG 40 kDa″)WLMNT-NH2 [C18 acylated Glucagon analog peptide (SEQ ID NO: 537)]
EC50 (glucagon receptor [8]): 8.55 nM
EC50 (GLP-1 receptor [9]): 0.0118 nM

HS[Dab](Ac)GTFTSDYSKYLD[Aib]RRATDFVTWLLDE [HSDab(Ac)…ibRRATDFVTWLLDE (SEQ ID NO: 606)]
% activity (glucagon receptor [10]): 46%
EC50 (glucagon receptor [10]): 0.057 nM

HSQGTFTSDYSKYLDEQAAKEFIC(PEG 40 kDa)WLMNT-NH2 [Chimera 2 Cys24 (40K)]
EC50 (GLP-1 receptor [11]): 0.04 nM
EC50 (glucagon receptor [8]): 2.83 nM

HSQGTFTSDK([Trp-Palmitoyl])SKYLDERRAKDFVC(PEG 40 kDa)WLMNT-NH2 [E16 K20-glucagon-NH2 with K10-W-C16 and C24-40K PEG (SEQ ID NO: 546)]
EC50 (GLP-1 receptor [12]): 0.23 nM
EC50 (glucagon receptor [13]): 0.52 nM
EC50 (GLP-1 receptor [11]): 0.23 nM
EC50 (glucagon receptor [8]): 0.54 nM

HSQGTFTSDYSKYLDEQAAKEFIAWLMNT-NH2 [E16 GLP(17-26)Glu(27-29)-NH2]
cAMP induction EC50 (GLP-1 receptor [6]): 0.014 nM
cAMP induction EC50 (glucagon receptor [7]): 0.076 nM

HSQGTFTSDK([Trp-Stearoyl])SKYLDERRAKDFVC(PEG 40 kDa)WLMNT-NH2 [E16 K20-glucagon-NH2 with K10-W-C18 and C24-40K PEG (SEQ ID NO: 548)]
EC50 (GLP-1 receptor [12]): 1.64 nM
EC50 (glucagon receptor [13]): 1.3 nM
EC50 (GLP-1 receptor [11]): 1.64 nM
EC50 (glucagon receptor [8]): 1.29 nM

HSQGTFTSDK([Glu-Palmitoyl])SKYLDERRAKDFVQWLMNT-NH2 [Peptide D (Example 22)]
EC50 (GLP-1 receptor [2]): 0.056 nM
EC50 (glucagon receptor [14]): 0.062 nM

B2: E16 GLP(17-29)-NH2 E24, K28 Lactam (peptide)
peptide: HSQGTFTSDYSKYLDEQAAKEFIEWLVKG-NH2
modifications: lactam 24-28; N-terminus assumed
SMILES: CC[C@H](C)[C@H](NC(=O)[C@H](Cc1ccccc1)NC(=O)[C@H](CCC(=O)O)NC(=O)[C@H](CCCCN)NC(=O)[C@H](C)NC(=O)[C@H](C)NC(=O)[C@H](CCC(N)=O)NC(=O)[C@H](CCC(=O)O)NC(=O)[C@H](CC(=O)O)NC(=O)[C@H](CC(C)C)NC(=O)[C@H](Cc1ccc(O)cc1)NC(=O)[C@H](CCCCN)NC(=O)[C@H](CO)NC(=O)[C@H](Cc1ccc(O)cc1)NC(=O)[C@H](CC(=O)O)NC(=O)[C@H](CO)NC(=O)[C@@H](NC(=O)[C@H](Cc1ccccc1)NC(=O)[C@@H](NC(=O)CNC(=O)[C@H](CCC(N)=O)NC(=O)[C@H](CO)NC(=O)[C@@H](N)Cc1c[nH]cn1)[C@@H](C)O)[C@@H](C)O)C(=O)N[C@H]1CCC(=O)NCCCC[C@@H](C(=O)NCC(N)=O)NC(=O)[C@H](C(C)C)NC(=O)[C@H](CC(C)C)NC(=O)[C@H](Cc2c[nH]c3ccccc23)NC1=O
cAMP induction EC50 (GLP-1 receptor [6]): 0.007 nM
cAMP induction EC50 (glucagon receptor [7]): 0.16 nM

B3: Peptide 81** (SEQ ID NO: 618) (peptide)
peptide: H[Aib]QGTFTSDK([Ala-Ala-Myristoyl])SKYLD[Aib]RRAQDFVCWLMNT-NH2
modifications: N-terminus assumed
SMILES: CCCCCCCCCCCCCC(=O)N[C@@H](C)C(=O)N[C@@H](C)C(=O)NCCCC[C@H](NC(=O)[C@H](CC(=O)O)NC(=O)[C@H](CO)NC(=O)[C@@H](NC(=O)[C@H](Cc1ccccc1)NC(=O)[C@@H](NC(=O)CNC(=O)[C@H](CCC(N)=O)NC(=O)C(C)(C)NC(=O)[C@@H](N)Cc1c[nH]cn1)[C@@H](C)O)[C@@H](C)O)C(=O)N[C@@H](CO)C(=O)N[C@@H](CCCCN)C(=O)N[C@@H](Cc1ccc(O)cc1)C(=O)N[C@@H](CC(C)C)C(=O)N[C@@H](CC(=O)O)C(=O)NC(C)(C)C(=O)N[C@@H](CCCNC(=N)N)C(=O)N[C@@H](CCCNC(=N)N)C(=O)N[C@@H](C)C(=O)N[C@@H](CCC(N)=O)C(=O)N[C@@H](CC(=O)O)C(=O)N[C@@H](Cc1ccccc1)C(=O)N[C@H](C(=O)N[C@@H](CS)C(=O)N[C@@H](Cc1c[nH]c2ccccc12)C(=O)N[C@@H](CC(C)C)C(=O)N[C@@H](CCSC)C(=O)N[C@@H](CC(N)=O)C(=O)N[C@H](C(N)=O)[C@@H](C)O)C(C)C
EC50 (GLP-1 receptor [4]): 0.018 nM

HSQGTFTSDYSKYLDEQAAKEFIEWLVKG-NH2 [E16 GLP(17-29)-NH2 E24, K28]
cAMP induction EC50 (GLP-1 receptor [6]): 0.007 nM
cAMP induction EC50 (glucagon receptor [7]): 0.23 nM

B4: HSDab(Ac)…ibRRAADFVAWLLDTGPSSGAPPPS amide (SEQ ID NO: 604) (peptide)
peptide: HS[Dab](Ac)GTFTSDYSKYLD[Aib]RRAADFVAWLLDTGPSSGAPPPS-NH2
modifications: N-terminus assumed
SMILES: CC(=O)NCC[C@H](NC(=O)[C@H](CO)NC(=O)[C@@H](N)Cc1c[nH]cn1)C(=O)NCC(=O)N[C@H](C(=O)N[C@@H](Cc1ccccc1)C(=O)N[C@H](C(=O)N[C@@H](CO)C(=O)N[C@@H](CC(=O)O)C(=O)N[C@@H](Cc1ccc(O)cc1)C(=O)N[C@@H](CO)C(=O)N[C@@H](CCCCN)C(=O)N[C@@H](Cc1ccc(O)cc1)C(=O)N[C@@H](CC(C)C)C(=O)N[C@@H](CC(=O)O)C(=O)NC(C)(C)C(=O)N[C@@H](CCCNC(=N)N)C(=O)N[C@@H](CCCNC(=N)N)C(=O)N[C@@H](C)C(=O)N[C@@H](C)C(=O)N[C@@H](CC(=O)O)C(=O)N[C@@H](Cc1ccccc1)C(=O)N[C@H](C(=O)N[C@@H](C)C(=O)N[C@@H](Cc1c[nH]c2ccccc12)C(=O)N[C@@H](CC(C)C)C(=O)N[C@@H](CC(C)C)C(=O)N[C@@H](CC(=O)O)C(=O)N[C@H](C(=O)NCC(=O)N1CCC[C@H]1C(=O)N[C@@H](CO)C(=O)N[C@@H](CO)C(=O)NCC(=O)N[C@@H](C)C(=O)N1CCC[C@H]1C(=O)N1CCC[C@H]1C(=O)N1CCC[C@H]1C(=O)N[C@@H](CO)C(N)=O)[C@@H](C)O)C(C)C)[C@@H](C)O)[C@@H](C)O
% activity (glucagon receptor [10]): 113%
EC50 (glucagon receptor [10]): 0.023 nM

HS[Dab](Ac)GTFTSDYSKYLD[Aib]RRASDFVSWLLDE [HSDab(Ac)…ibRRASDFVSWLLDE (SEQ ID NO: 605)]
% activity (glucagon receptor [10]): 54%
EC50 (glucagon receptor [10]): 0.048 nM

HSQGTFTSDK(Stearoyl)SKYLDERRAKDFVC(PEG 40 kDa)WLMNT-NH2 [E16 K20-glucagon-NH2 with K10-C18 and C24-40K PEG (SEQ ID NO: 547)]
EC50 (GLP-1 receptor [12]): 0.15 nM
EC50 (glucagon receptor [13]): 0.84 nM
EC50 (GLP-1 receptor [11]): 0.15 nM
EC50 (glucagon receptor [8]): 0.84 nM
